# According to patent US20210253725A1 (BIONTECH, published 2021):
# Where a chain is given by its changes, count along the chain named. Names and notes keep the numbering of the source.
# T1: CD27 expressed on the cell surface (HT1080_CD27 cells) (human, UniProt P26842 20-260)
# T1 construct: whole, on cells; also called K562_CD27
# T1 sequence (looked up): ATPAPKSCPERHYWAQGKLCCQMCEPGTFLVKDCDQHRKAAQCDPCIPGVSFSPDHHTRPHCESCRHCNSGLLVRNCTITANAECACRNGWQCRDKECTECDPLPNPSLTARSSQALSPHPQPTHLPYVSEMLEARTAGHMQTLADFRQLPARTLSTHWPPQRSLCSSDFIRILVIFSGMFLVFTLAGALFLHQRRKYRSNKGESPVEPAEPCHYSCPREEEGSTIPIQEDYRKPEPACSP
# T2: CD27 protein (His-tagged, Sino Biological Inc. 10039-H08B1) (human, UniProt P26842 20-192)
# T2 construct: bought; coated onto ELISA plates; also called human CD27; recombinant protein; not shown: His tag
# T2 sequence (looked up): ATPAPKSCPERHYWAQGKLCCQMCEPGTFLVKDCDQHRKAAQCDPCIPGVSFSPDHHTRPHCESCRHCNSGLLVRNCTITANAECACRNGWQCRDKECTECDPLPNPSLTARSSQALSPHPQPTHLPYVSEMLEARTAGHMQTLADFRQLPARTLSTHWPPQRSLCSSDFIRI
# B1: P018.S.09.A.D02 (antibody, V domains shown)
# VH: QSLEESGGRLVTPGTPLTLTCTASGFSLSKYDMGWFRQAPGKGLEWIGMIGASDRTYYASWVKGRFTISKTSTTVDLRITSPTTEDTATYFCAREYPDARGYYYNLWGPGTPVTVSS
# VL: ALVMTQTPASVEAAVGGTVTINCQASQSISDLLAWYQQKPGQPPKLLIYDASDLASGVPSRFSGSGSGTEFTLTISGVQSDDAATYYCQQGYSITNVDNVFGGGTEVVVK
# notes: V regions on human Ig constant parts; also called AB27_150
# B2: P018.S.01.A.D02 (antibody, V domains shown)
# VH: B1 VH with R55S
# VL: B1 VL with L46P, S63K, E70Q
# notes: V regions on human Ig constant parts; also called AB27_11
# B3: P018.S.03.A.H04 (antibody, V domains shown)
# VH: QSLEESGGRLVTPGTPLTLTCTASGFSLSNYSMNWVRQAPGKGLEWIGIINTYGSAYYASWAKGRFTISKTSTTVDLKMTSLTTEDTATYFCARDAGGSTVPWFFDVWGPGTLVTVSS
# VL: AYDMTQTPASVEVAVGGTVTIKCQASQTISNYLAWYQQKPGQRPKLLIYDASKLASGVPSRFDGSGSGTEYTLTISGVGSADAATYYCQQGYADSNVDNVFGGGTEVVVK
# notes: V regions on human Ig constant parts; also called AB27_62
# B4: P018.S.07.A.B03 (antibody, V domains shown)
# VH: QSVEESGGRLVTPGTPLTLTCTVSGFSLSSYAMGWVRQAPGKGLEWIGDIYGSGSTYYASWAKGRFTFSRTSTTVDLKMTSLTTEDTATYFCARSKGYNYNLWNLWGQGTLVTVSS
# VL: DIVMTQTPSSVSAAVGGTVTINCQASQNIYTNLAWYQQKPGQRPKLLIYDASDLASGVPSRFSGSGSGTEYTLTISDLESADAATYYCQTYSYSGSSSANPFGGGTEVVVK
# notes: V regions on human Ig constant parts; also called AB27_115
# B5: P018.S.02.A.C06 (antibody, V domains shown)
# VH: QEQLEESGGGLVQPEGSLTLTCKASGIDFSSNYYISWVRQAPGKGLEWIGCIYTGSDDAAYYASWAKGRFTISKTSSTTVTLQMTSLTAADTATYFCAREILYPTNTDSFDLWGPGTLVTVSS
# VL: AQVLTQTPSSVSEPVGGIVTINCQASESISSRLAWYQQKPGQPPKLLIYRAATLASGVPSRFKGSGSGTDFTLTISDLESADAATYYCQSYVGASSGGYFFGGGTEVVVK
# notes: V regions on human Ig constant parts; also called AB27_32
# B6: P018.S.07.A.H04 (antibody, V domains shown)
# VH: QSLEESGGRLVTPGTPLTLTCTVSGLSLSSYDMSWVRQAPGKGLEWIGYIWSGGSTDYASWAKGRFTISKTSTTVDLKIISPTTEDTATYFCARGYVEFDLWGPGTLVTVSS
# VL: DPVLTQTPPSVSAAVGGTVTINCQSSQSLYSNNYLSWYQQKAGQPPKVLIWPASSLASGVPSRFKGSASGTQFTLTISELQSDDAATYYCQGTFYDSGWLSAFGGGTEVVVK
# notes: V regions on human Ig constant parts; also called AB27_132
# B7: P018.S.03.A.D02 (antibody, V domains shown)
# VH: B6 VH with L3V, S55T
# VL: B6 VL with A42P, A68G, A102T
# notes: V regions on human Ig constant parts; also called AB27_47
# B8: P018.S.01.A.B04 (antibody, V domains shown)
# VH: QEQLEESGGRLVTPGGTLTLTCTASGFSLSSYDMSWVRQAPGKGLEWIGYIWSDGNTDYASWAAGRFTASRASTTVDLKMTSLTTEDTATYFCARGYTGFFLWGPGTLVTVSS
# VL: DVVMTQTPSSVSAAVGGTVTIKCQASQSIGSSYLSWYQQKPGQPPKLLIYKTSTLASGVPSRFKGSGSGTEFTLTISDLESDDAATYYCQCTYYGGSWRVAFGGGTEVVVK
# notes: V regions on human Ig constant parts; also called AB27_5
# B9: P018.S.01.A.B05 (antibody, V domains shown)
# VH: B8 VH with S61T
# VL: B8 VL with G96S
# notes: V regions on human Ig constant parts; also called AB27_6
# B10: P018.S.01.A.G04 (antibody, V domains shown)
# VH: QEQLVESGGGLVQPEGSLTLTCTASGVSFSNNYYISWVRQAPGKGLEWIACVYTGDDDYTYYPSWAKGRFTISKTSSTTVTLQMTSLTAADTATYFCAREILYPADTDSFDLWGPGTLVTVSS
# VL: AFELTQTPSSVEAAVGGTVTIKCQASESISSRLAWYQQKPGQPPKLLIYRASTLASGVPSRFKGSGSGTDFTLTISDLESADAATYYCQAYVGISSGGYIFGGGTEVVVK
# notes: V regions on human Ig constant parts; also called AB27_23
# B11: P018.S.07.A.B04 (antibody, V domains shown)
# VH: QSVEESGGRLVTPGTPLTLTCTVSGFSLSSYDMIWVRQAPGKGLEWIGIIYLTDTTYYANWTKGRFTISKTSTTVDLKISSPTTEDTATYFCARHLDTSSGGFYFNLWGQGTLVTVSS
# VL: AQVLTQTPSSVSAAVGGTVTINCQASQSVYNSKILAWYQQKPGRPPKLLIYDASTLASGVPSRFKGSGSGTQFTLTISGVQSDDAATYFCQGEFTCTSADCIAFGGGTEVVVK
# notes: V regions on human Ig constant parts; also called AB27_116
# B12: P018.S.06.A.B03 (antibody, V domains shown)
# VH: B11 VH with T62A
# VL: B11 VL
# notes: V regions on human Ig constant parts; also called AB27_99
# B13: P018.S.05.A.D04 (antibody, V domains shown)
# VH: QSLEESGGDLVKPGASLTLTCTASEFDFNNNAMCWVRQAPGKGLEWIACIYIGNGGTWYASWAKGRFTISKSSSTTVTLQVTSLTAADTATYFCARGENIAYFILWGPGTLVTVSS
# VL: DIVMTQTPASVSAAVGGTVTIKCQASQSINSWLSWYQQKPGQPPKLLIYKASTLASGVPSRFKGSGSGTEFTLTISDLESADAATYYCQGYYYYSSSNYASNAFGGGTEVVVK
# notes: V regions on human Ig constant parts; also called AB27_87
# B14: P018.S.02.A.H05 (antibody, V domains shown)
# VH: QSLEESGGDLVKPGASLTLTCTASGIDFSSSSMCWVRQAPGKGLEWIACIDTGSSGRTDYASWAKGRFTLSKTSATTVTLQMTSLTAADTATYFCTRYGDYAGYGYDSFDPWGPGTLVTVSS
# VL: AQVLTQTPSSVSAAVGGTVTINCQASQNINNWCSWYQQKPGQPPKLLIAYASTLASGVSSRFKGSGSGTQFTLTISGVQSDDAATYYCQQTFDCTDVENVFGGGTEVVVK
# notes: V regions on human Ig constant parts; also called AB27_40
# B15: P018.S.02.A.F05 (antibody, V domains shown)
# VH: QEQLVESGGDLVKPEGSLTLTCTASGFSFSSSYYMSWVRQAPGKGLEWIACIDTVDNYTYYASWAKGRFTISKTSSTTVSLQMTSLTAADTATYFCARERIAYNTDYFNLWGPGTLVTVSS
# VL: AQVLTQTPSPVSAAVGGTVTISCQSSQSLYNYNNLAWYQQKPGQPPKLLIYSASNLASGVPSRFGGSGSGTQFTLTISDLQSDDAATYYCQGYYSGAVYTFGGGTEVVVK
# notes: V regions on human Ig constant parts; also called AB27_35
# B16: P018.S.02.A.B05 (antibody, V domains shown)
# VH: B15 VH with D10G, K13Q, T23K, S28D, V55A, N57G
# VL: B15 VL with A53V
# notes: V regions on human Ig constant parts; also called AB27_31
# B17: P018.S.04.A.C02 (antibody, V domains shown)
# VH: B15 VH
# VL: B15 VL with A53V, S67G, D83A
# notes: V regions on human Ig constant parts; also called AB27_69
# B18: P018.S.04.A.B01 (antibody, V domains shown)
# VH: B15 VH with E15G, S17T, V55A, N57A
# VL: B15 VL
# notes: V regions on human Ig constant parts; also called AB27_66
# B19: P018.S.08.A.D02 (antibody, V domains shown)
# VH: QSVEESGGRLVTPGTPLTLTCTVSGFSLSHYHILWVRQAPGEGLKYIGITLNNGRIDYATWAKGRFTISKTSTTVDLEITSPTTEDTATYFCAKYFVSESYDLWGQGTLVTVSS
# VL: TAVLTQTPSPVSAAVGSTVTINCQASQSVYNDNWLSWYQQKPGQPPKLLIYGASTLASGVPSRFKGSGSGTQFTLTISDVQSGDAATYYCLGGYKDNSDNVFGGGTEVVVK
# notes: V regions on human Ig constant parts; also called AB27_138
# Molecular target: T1, CD27 expressed on the cell surface …
# Assay: cellular binding assay, HT1080_CD27 cells
# Also: test concentration or dose not given here.
row,Binder,Cellular binding assay [RFU]
1,B1,337 RFU
2,B2,323 RFU
3,B3,334 RFU
4,B4,346 RFU
5,B5,348 RFU
6,B6,386 RFU
7,B7,397 RFU
8,B8,382 RFU
9,B9,376 RFU
10,B10,388 RFU
11,B11,382 RFU
12,B12,424 RFU
13,B13,317 RFU
14,B14,252 RFU
15,B15,307 RFU
16,B16,374 RFU
17,B17,415 RFU
18,B18,330 RFU
19,B19,407 RFU

# Molecular target: T1, CD27 expressed on the cell surface …
# Assay: cell-based or functional assay
Binder,"IL-8, cross-linked by F(ab')2 fragment [abs. corr.]",IL-8 [abs. corr.]
B1,1.75 abs. corr.,1.01 abs. corr.
B2,1.67 abs. corr.,0.675 abs. corr.
B3,1.23 abs. corr.,0.211 abs. corr.
B4,1.34 abs. corr.,0.612 abs. corr.
B5,1.59 abs. corr.,0.418 abs. corr.
B6,1.86 abs. corr.,0.158 abs. corr.
B7,1.47 abs. corr.,0.463 abs. corr.
B8,2.12 abs. corr.,0.582 abs. corr.
B9,1.88 abs. corr.,0.453 abs. corr.
B10,1.15 abs. corr.,0.273 abs. corr.
B11,1.67 abs. corr.,0.304 abs. corr.
B12,1.22 abs. corr.,0.566 abs. corr.
B13,1.53 abs. corr.,0.246 abs. corr.
B14,1.4 abs. corr.,0.067 abs. corr.
B15,1.17 abs. corr.,0.395 abs. corr.
B16,1.76 abs. corr.,0.201 abs. corr.
B17,1.53 abs. corr.,0.235 abs. corr.
B18,1.67 abs. corr.,0.508 abs. corr.
B19,1.67 abs. corr.,0.534 abs. corr.

# Molecular target: T2, CD27 protein (His-tagged, Sino …)
# Assay: ELISA on coated His-tagged CD27
row,Binder,ELISA [abs. corr.]
1,B1,3.37 abs. corr.
2,B2,3.26 abs. corr.
3,B3,3.59 abs. corr.
4,B4,3.37 abs. corr.
5,B5,3.37 abs. corr.
6,B6,3.4 abs. corr.
7,B7,3.37 abs. corr.
8,B8,3.36 abs. corr.
9,B9,3.5 abs. corr.
10,B10,3.77 abs. corr.
11,B11,3.63 abs. corr.
12,B12,3.59 abs. corr.
13,B13,3.37 abs. corr.
14,B14,3.38 abs. corr.
15,B15,3.44 abs. corr.
16,B16,3.48 abs. corr.
17,B17,3.37 abs. corr.
18,B18,3.38 abs. corr.
19,B19,3.37 abs. corr.
